These results are taken from patent publication US11685786 (MERUS N V, dated 2023).

Experiment [1] concerns the target T1, recombinant huCD137-Fc (R&D; cat. no. 838-4B) (human, UniProt Q07011 24-186).
T1 construct: Bought; not shown: Fc of bought fusion protein, not described
The experiment can be described thus: competition ELISA: CD137L-muCD8 biotin on coated CD137-Fc, IgG 20 ug/ml.

For experiment [2], the target named is T1, recombinant huCD137-Fc (R&D; cat. no. …). Put plainly: CD137L blocking assay; competitor CD137L; format not told in the excerpt.

B1: MF6788 x MF6788 bivalent monospecific CD137 IgG (antibody, V domains shown)
VH: EVQLVQSGSELKKPGASVKVSCKASGYTFTNFAMNWVRQAPGQGLEWMGWINTNTGNPTYAQDFTGRFVFSLDTSGNTAYLQISSLKAEDTAVYYCARDWGLVAIGYFDYWGQGTLVTVSS
VL: not shown
notes: bivalent IgG; also called PB14193; copies: 2 + 2
In the case of B1, the “% CD137L block” value in experiment [1] and in experiment [2] was 55% throughout.

B2: MF6798 x MF6798 bivalent monospecific CD137 IgG (antibody, V domains shown)
VH: QVQLVQSGSELKKPGASVKVSCRASGYTFTNFAMTWVRQAPGQGPEYMGWINTNTGNPTYAQGFTGRFVFSLDTSVNTAYLQISSLKAEDTAVYYCARDWASVMVRGDLDYWGQGTLVTVSS
VL: not shown
notes: bivalent IgG; copies: 2 + 2
Consider B2, for which the “% CD137L block” value in experiment [1] and in experiment [2] was 44% in each case.

B3: MF6744 x MF6744 bivalent monospecific CD137 IgG (antibody, V domains shown)
VH: EVQLVQSGAEVKKPGESLKISCKGSGYSFTSYWIGWVRQMPGKGLEWMGIIFPDDSDTRYSPSFQGQVTISADKSISTAYLQWSSLKPSDTAMYYCVRLGGYSGYAEDFVDFWGQGTLVTVSS
VL: not shown
notes: bivalent IgG; also called PG6744; PB14135; copies: 2 + 2
In the case of B3, the “% CD137L block” value in experiment [1] and in experiment [2] was 67% each time.

B4: MF6825 x MF6825 bivalent monospecific CD137 IgG (antibody, V domains shown)
VH: QITLKESGPTLVKPTQTLTLSCTFSGFSLSTSGMSVGWIRQPPGKALEWLALIYWNDDKYFSPSLKSRLTITKDTSKNQVVLTLTNMDPVDTATYYCAHTLWGSDDVFDVWGQGTMVTVSS
VL: not shown
notes: bivalent IgG; also called PB14162; copies: 2 + 2
As to B4, the “% CD137L block” value in experiment [1] and in experiment [2] was 89% throughout.

B5: MF6861 x MF6861 bivalent monospecific CD137 IgG (antibody, V domains shown)
VH: QVQLVQSGAEVKKPGASVKVSCKASGYTFTSYGISWVRQAPGQGLEWMGWISAYNGNTNYAQKLQGRVTMTTDTSTSTAYMELRSLRSDDTAVYYCARDSDGYGPKAFDYWGQGTLVTVSS
VL: not shown
notes: bivalent IgG; copies: 2 + 2
On to B5, for which the “% CD137L block” value in experiment [1] and in experiment [2] was 50% throughout.

B6: MF6795 x MF6795 bivalent monospecific CD137 IgG (antibody, V domains shown)
VH: EVQLVQSGAEVKKPGESLKISCKGSGYSFTSYWIGWVRQMPGKGLEWMGIIYPDDSDTRYSPSFQGQVTISADKSSSTAYLQWSSLKASDTAMYYCASFYTGIVGATGAFDVWGQGTTVTVSS
VL: not shown
notes: bivalent IgG; copies: 2 + 2
As to B6, the “% CD137L block” value in experiment [1] and in experiment [2] was 32% in each case.

B7: MF6783 x MF6783 bivalent monospecific CD137 IgG (antibody, V domains shown)
VH: QVQLVQSGSELKKPGASVKVSCKASGYTFTNFAMNWVRRAPGQGLEWMGWINTNTGNPTYAQGFTGRFVFSLDTSVNTAYLQISSLKAEDTAVYYCARDWGVIGGHYMDVWGKGTTVTVSS
VL: not shown
notes: bivalent IgG; also called PG6783; PB14143; copies: 2 + 2
With B7, the “% CD137L block” value in experiment [1] and in experiment [2] was 44% in each case.
